{"source": "IntAct's records for PubMed 18946488", "parents": {"B1": {"name": "Rho-related GTP-binding protein RhoE (Mus musculus), P61588 (parent)", "chain": "MKERRASQKLSSKSIMDPNQNVKCKIVVVGDSQCGKTALLHVFAKDCFPENYVPTVFENYTASFEIDTQRIELSLWDTSGSPYYDNVRPLSYPDSDAVLICFDISRPETLDSVLKKWKGEIQEFCPNTKMLLVGCKSDLRTDVSTLVELSNHRQTPVSYDQGANMAKQIGAATYIECSALQSENSVRDIFHVATLACVNKTNKNVKRNKSQRATKRISHMPSRPELSAVATDLRKDKAKSCTVM"}}}
{"variants_of": "B1", "conditions": "with rock1_mouse Rock1, P70335"}
{"variant": "MKERRASQKLSSKSIMDPNQNVKCKIVVVGDSQCGKTALLHVFAKDCFPENYVPTVFENYTASFEIDTQRIELSLWDTSGSPYYDNVRPLSYPDSDAVLICFDISRPETLDSVLKKWKGEIQEFCPNTKMLLVGCKSDLRTDVSTLVELSNHRQTPVSYDQGANMAKQIGAATYIECSALQSENSVRDIFHRATLACVNKTNKNVKRNKSQRATKRISHMPSRPELSAVATDLRKDKAKSCTVM", "note": "[V192R]", "effect of a mutation on the interaction": "disrupting interaction"}
{"variants_of": "B1", "conditions": "with rock1_mouse Rock1, P70335", "remark": "another data set of the same source"}
{"variant": "MKERRASQKLSSKSIMDPNQNVKCKIVVVGDSQCGKTALLHVFAKDCFPENYVPTVFENYTASFEIDTQRIELSLWDTSGSPYYDNVRPLSYPDSDAVLICFDISRPETLDSVLKKWKGEIQEFCPNTKMLLVGCKSDLRTDVSTLVELSNHRQTPVSYDQGANMAKQIGAARYIECSALQSENSVRDIFHVATLACVNKTNKNVKRNKSQRATKRISHMPSRPELSAVATDLRKDKAKSCTVM", "note": "[T173R]", "effect of a mutation on the interaction": "disrupting interaction"}
